Changes are numbered by the printed parent chain.

Five molecules from US20220153832A1 (PIONYR IMMUNOTHERAPEUTICS, published 2022) can be followed below.

Assay [1] concerns the target T1, N-terminally polyhistidine tagged human MARCO ECD (147-520), recombinant (human, UniProt Q9UEW3 147-520).
T1 construct: also called PI-RG-3000; recombinant human MARCO; not shown: N-terminal polyhistidine tag
T1 sequence: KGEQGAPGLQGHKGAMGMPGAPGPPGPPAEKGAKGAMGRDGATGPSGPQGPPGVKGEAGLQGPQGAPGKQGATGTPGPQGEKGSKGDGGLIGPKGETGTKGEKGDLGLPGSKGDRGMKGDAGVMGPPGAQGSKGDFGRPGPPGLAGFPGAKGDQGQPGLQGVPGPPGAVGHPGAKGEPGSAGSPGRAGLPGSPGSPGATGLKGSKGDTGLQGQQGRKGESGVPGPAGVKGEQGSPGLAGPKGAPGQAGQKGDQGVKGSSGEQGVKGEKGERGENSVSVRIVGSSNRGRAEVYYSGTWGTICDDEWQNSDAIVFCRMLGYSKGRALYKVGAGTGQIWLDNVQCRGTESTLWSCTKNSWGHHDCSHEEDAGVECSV
Kind of assay: SPR, single cycle (sc). (In SPR one partner is held on a chip, and binding of the other changes the refractive index at the surface.)

In assay [2] the target is T2, recombinant cynomolgus MARCO protein (cynomolgus, UniProt A0A2K5X0Z2 65-519).
T2 construct: Construct not described; also called cyno MARCO; cynoMARCO
T2 sequence: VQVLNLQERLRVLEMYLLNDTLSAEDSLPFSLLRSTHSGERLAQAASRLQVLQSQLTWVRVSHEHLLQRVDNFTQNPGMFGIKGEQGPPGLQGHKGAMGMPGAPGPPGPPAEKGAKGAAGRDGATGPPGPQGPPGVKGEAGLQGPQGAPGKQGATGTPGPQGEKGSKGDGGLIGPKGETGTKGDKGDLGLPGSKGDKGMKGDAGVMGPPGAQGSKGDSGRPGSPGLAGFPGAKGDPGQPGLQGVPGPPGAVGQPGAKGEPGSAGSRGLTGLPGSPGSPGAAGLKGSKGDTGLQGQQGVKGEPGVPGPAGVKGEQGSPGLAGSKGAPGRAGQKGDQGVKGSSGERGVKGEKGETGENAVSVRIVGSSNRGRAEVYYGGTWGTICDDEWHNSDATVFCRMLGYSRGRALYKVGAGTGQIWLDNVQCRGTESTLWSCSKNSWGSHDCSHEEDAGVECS
The experiment in a line: SPR, single cycle (sc).

Assay [3] addresses T3, Human Macrophage Receptor with Collagenous Structure (MARCO), full length, on cells (human, UniProt Q9UEW3 1-520).
T3 construct: the cell type is named under assay; also called huMARCO; HuMARCO
T3 sequence: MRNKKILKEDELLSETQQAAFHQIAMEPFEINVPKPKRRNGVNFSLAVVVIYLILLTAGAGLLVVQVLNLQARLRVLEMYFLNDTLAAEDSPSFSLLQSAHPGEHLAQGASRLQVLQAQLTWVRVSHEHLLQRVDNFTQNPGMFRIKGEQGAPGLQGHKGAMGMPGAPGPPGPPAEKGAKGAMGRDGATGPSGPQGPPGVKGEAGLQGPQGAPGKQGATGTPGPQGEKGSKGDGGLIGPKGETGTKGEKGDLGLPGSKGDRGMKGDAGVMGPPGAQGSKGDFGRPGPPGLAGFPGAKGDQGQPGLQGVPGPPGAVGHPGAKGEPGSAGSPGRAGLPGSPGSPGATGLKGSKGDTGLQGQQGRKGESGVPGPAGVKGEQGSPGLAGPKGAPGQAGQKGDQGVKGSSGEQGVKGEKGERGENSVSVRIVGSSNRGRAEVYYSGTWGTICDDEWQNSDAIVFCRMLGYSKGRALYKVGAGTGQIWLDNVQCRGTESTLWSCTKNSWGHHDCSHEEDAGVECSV
Kind of assay: flow cytometry, 293T (HuMARCO). How it is done:
Supernatants were removed and cell pellets were resuspended in Ca²⁺+ and Mg²⁺+ Dulbecco's phosphate-buffered saline (D-PBS) at 1×10⁶ cells/ml. 100,000 cells/well were plated onto U-bottom 96-well plates for staining and all centrifugation steps were performed at 1500 rpm at 4° C. for 5 min and samples were kept protected from light throughout the protocol. Cells were pelleted and resuspended in 100 μl of Zombie NIR viability dye (BioLegend) prepared by diluting Zombie NIR dimethyl sulfoxide (DMSO) stock 1000-fold in D-PBS. […] Flow cytometry data were analyzed using FlowJo software (version 10.6.1) and data were processed and further analyzed in Microsoft Excel and GraphPad Prism software (version 8). Half-maximal effective concentrations (EC₅₀) were calculated based on geometric mean fluorescence intensities (gMFI). In case when the plates were not able to be analyzed on the cytometer, cells were pelleted after the washes and fixed in 100 μl of 2% paraformaldehyde (PFA), prepared by diluting the 16% (w/v) stock (Thermo Fisher) in DPBS, for 15 min at RT. […]
For orientation: Flow cytometry measures light scatter and fluorescence of single cells or particles in a stream.

Assay [4] addresses T1, N-terminally polyhistidine tagged human …. The experiment in a line: ELISA on recombinant human MARCO, 50 mM EDTA. How it is done: After the plates were incubated at room temperature for 1 hour or 4° C. overnight, the plates were wash 3 times with ELISA wash buffer (PBS/0.05% TWEEN-20), then hybridoma supernatant (1:5 dilution) or purified antibody (1 ug) was diluted in DPBS/Ca2+/2% FBS, DPBS without Ca2+/2 mM EDTA/2% FBS, DPBS without Ca2+/10 mM EDTA/2% FBS, and DPBS without Ca2+/50 mM EDTA/2% FBS. Plates again were incubated at room temperature for 1 hour.

B1: PI-3015-AB (antibody, human IgG1, kappa)
heavy: not shown
light: DIQMTQSPSSLSASVGDRVTITCRASEGISNDLAWYQQKPGKAPKLLIYAASRLQSGVPSRFSGSGSGTDYTLTISSMQPEDFATYYCQQSYKYPLTFGQGTKLEIKRTVAAPSVFIFPPSDEQLKSGTASVVCLLNNFYPREAKVQWKVDNALQSGNSQESVTEQDSKDSTYSLSSTLTLSKADYEKHKVYACEVTHQGLSSPVTKSFNRGEC
On to B1, for which the values for the Kd in assay [1] and in assay [2] were 911 pM and 611 pM, respectively.

B2: PI-HX-3061 (antibody, rat IgG2a)
heavy: EVQLVESGGGLVQPGSSLKLSCVASKFTFSNYGMNWIRQAPKKGLEWIALIYYNSNNKYYADSVKGRFTISRDNSKNTLYLEMNSLRSEDTAMYYCAKSLTGGSDYFDSWGQGVMVTVSSAETTAPSVYPLAPGTALKSNSMVTLGCLVKGYFPEPVTVTWNSGALSSGVHTFPAVLQSGLYTLTSSVTVPSSTWPSQTVTCNVAHPASSTKVDKKIVPRNCGGDCKPCICTGSEVSSVFIFPPKPKDVLTITLTPKVTCVVVDISQDDPEVHFSWFVDDVEVHTAQTRPPEEQFNSTFRSVSELPILHQDWLNGRTFRCKVTSAAFPSPIEKTISKPEGRTQVPHVYTMSPTKEEMTQNEVSITCMVKGFYPPDIYVEWQMNGQPQENYKNTPPTMDTDGSYFLYSKLNVKKEKWQQGNTFTCSVLHEGLHNHHTEKSLSHSP
light: DVQMTQSPSYLAASPGESVSISCKASKSIGTFLAWYQEKPEKTNKLLIYSGSTLQSGTPSRFSGSGSGTDFTLTIRNLEPEDFAVYYCQQHDEYPFTFGSGTKLEIKRADAAPTVSIFPPSTEQLATGGASVVCLMNNFYPRDISVKWKIDGTERRDGVLDSVTDQDSKDSTYSMSSTLSLTKADYESHNLYTCEVVHKTSSSPVVKSFNRNEC
notes: Parental rat hybridoma, rat IgG2a; cross reactive with human and mouse MARCO
For the molecule B2, it took 490 pM to reach a half-maximal effect in assay [3] (EC50).

B3: PI-3010-AB (antibody, human IgG1, kappa)
heavy: not shown
light: DIQMTQSPASLSTSLGETVSIECLASEGISNDLAWYQQKSGKSPQLLIYAASRLQDGVPSRFSGSGSGTRYSLKISGMQPEDEADYFCQQSYKYPLTFGSGTKLEIKRTVAAPSVFIFPPSDEQLKSGTASVVCLLNNFYPREAKVQWKVDNALQSGNSQESVTEQDSKDSTYSLSSTLTLSKADYEKHKVYACEVTHQGLSSPVTKSFNRGEC
B3: the Kd (commonly the equilibrium constant for the complex coming apart) in assay [1] amounted to 430 pM; in assay [2], 259 pM.

B4: PI-HX-3031 (antibody)
heavy: QVQLKESGPGLVQPSQTLSLTCTVSGFSLTSYHVSWVRQPPGKGLEWMGAIWTGGSIAYNSLLKSRLSISRDTSKSQVFLKMNSLQTEDTATYYCARDLSDYYSSYTSFDYWGQGVMVTVSTAETTAPSVYPLAPGTALKSNSMVTLGCLVKGYFPEPVTVTWNSGALSSGVHTFPAVLQSGLYTLTSSVTVPSSTWSSQAVTCNVAHPASSTKVDKKIVPRECNPCGCTGSEVSSVFIFPPKTKDVLTITLTPKVTCVVVDISQNDPEVRFSWFIDDVEVHTAQTHAPEKQSNSTLRSVSELPIVHRDWLNGKTFKCKVNSGAFPAPIEKSISKPEGTPRGPQVYTMAPPKEEMTQSQVSITCMVKGFYPPDIYTEWKMNGQPQENYKNTPPTMDTDGSYFLYSKLNVKKETWQQGNTFTCSVLHEGLHNHHTEKSLSHSP
light: DIQMTQSPASLSTSLGETVSIECLASEGISNDLAWYQQKSGKSPQLLIYAASRLQDGVPSRFSGSGSGTRYSLKISGMQPEDEADYFCQQSYKYPLTFGSGTKLEIKRADAAPTVSIFPPSTEQLATGGASVVCLMNNFYPRDISVKWKIDGTERRDGVLDSVTDQDSKDSTYSMSSTLSLTKADYESHNLYTCEVVHKTSSSPVVKSFNRNEC
notes: Parental rat hybridoma, rat IgG2a
With B4, in assay [4], the “ELISA signal (A450)” value turned out to be 0.0754. Further, the EC50 (commonly the concentration giving half of the maximal effect) in assay [3] worked out at 560 pM.

B5: PI-HX-3043 (antibody, rat IgG2a)
heavy: QVNLLQSRAALVKPGASVKLSCKASGYTFTDYYLHWVKQSHAKSLEWIGYINPNNAYTSYNEKFKSKATLTVDKSTNTAYMELSRLTSADSATYYCARDTTDYYNLHFAYWGQGTLVTVSSAETTAPSVYPLAPGTALKSNSMVTLGCLVKGYFPEPVTVTWNSGALSSGVHTFPAVLQSGLYTLTSSVTVPSSTWSSQAVTCNVAHPASSTKVDKKIVPRECNPCGCTGSEVSSVFIFPPKTKDVLTITLTPKVTCVVVDISQNDPEVRFSWFIDDVEVHTAQTHAPEKQSNSTLRSVSELPIVHRDWLNGKTFKCKVNSGAFPAPIEKSISKPEGTPRGPQVYTMAPPKEEMTQSQVSITCMVKGFYPPDIYTEWKMNGQPQENYKNTPPTMDTDGSYFLYSKLNVKKETWQQGNTFTCSVLHEGLHNHHTEKSLSHSP
light: B4 light with T13A, A25T, A50D, Q55E, P80T
notes: as for B4
With B5, in assay [4], the “ELISA signal (A450)” value turned out to be 0.1.
